Assay results taken from patent publication US20130171217A1, “ENZYMATIC PERACID GENERATION FOR USE IN SKIN CARE PRODUCTS” (E I DU PONT DE NEMOURS AND COMPANY, priority 2010, published 2013).

What was measured:
[1] = Single fiber tensile strength and bleaching start after two-step enzymatic application
Procedure: Hair samples were cut into pieces 4-inches in length. The denier number (liner mass density) of each hair fiber was measured by Textechno Vibromat Instrument (Textechno Herbert Stein GmbH & Co. KG; Germany). The hair fibers were tested according to ASTM D 3822-01 (“Tensile Properties of Single Textile Fibers”; ASTM International, West Conshohocken, Pa., 2001), on an Instron testing system (Instron Model 1122 Tester; Instron, Mass.) at about 70° F. (approximately 21° C.) and 65% relative humidity. The treated area of the hair sample was placed in the middle of the gauge and both ends were gripped on the test heads. Both fiber ends were attached on a piece of tape, respectively, for easy handling and gripping on the test heads. The test used 2-inch (5.1 cm) gauge length, […], and 1.2 inch/min (3 cm/min) pulling rate. The force-strain curve of the fiber was recorded during the test. The tenacity at maximum (gf/den) was calculated by dividing maximum force (gf) by denier number (den). Note that (gf/den)/11.33=Newtons/tex (N/tex).
In a two-step application, the hair strands are first treated with perhydrolase solutions to allow the enzyme to bind hair. The hair strands are then dried or rinsed with buffer and dried. The rinse step is intended to remove excess unbound enzyme from the hair. The hair strands are soaked in triacetin and H2O2 solutions. The application is repeated for multiple times.
One experiment was carried out with C277S-HC263 and untargeted T. maritima variant C277S using the following protocol: • 1. Enzyme solutions comprising 0.5 mg/mL enzyme in 50 mM phosphate buffer (pH 8) were made with or without 10 wt % urea. • 2. Seven (7) hair strands were soaked in 0.2 mL of an enzyme solution for 10 min and then dried under N2 without prior rinsing. • 3. The hair strands were then soaked in 0.2 mL of a pH 8 solution containing 100-mM triacetin and 250-mM H2O2 for 15 min, dried, then rinsed with DI water and then dried again. • 4. Steps 2-3 were repeated up to 15 times.
Another experiment was carried out with C277S-HC263 (SEQ ID NO: 288), CPAH-HC263 (SEQ ID NO: 294), CPAH-HC1010 (SEQ ID NO: 295) and untargeted C277S using the following protocol: • 1. Enzyme solutions comprising 1.0 mg/mL enzyme in 50 mM phosphate buffer (pH 6) were prepared. For solutions containing two enzymes, the concentration of each enzyme was approximately 0.5 mg/mL. • 2. Seven (7) hair strands were soaked in 0.2 mL of an enzyme solution for 10 min, rinsed with 50 mM phosphate buffer (pH 6), and then dried under N2. • 3. The dried hair strands were then soaked into 0.2 mL of 50 mM phosphate buffer solution (pH 8) comprising 100 mM triacetin and 250 mM H2O2 for 15 min, dried, then rinsed with DI water and then dried again. • 4.

[2] = Two-step treatment of hair tresses, tress tensile strength
Procedure: Medium brown hair was used in these examples. Stock hair swatches were custom made by International Hair Importers (Glendale, N.Y.). Each swatch had 1500 mg of 50% reversed hair, soft glued in the middle with glue thickness of 1 mm and width of 2 cm.
Test-hair-sample consisted of a hair bundle of approximately 50 mg hair of 4 cm length, held together by a 1 mm thick, 2 mm wide and 5 mm long glue strip. A sheet of BYTAC® (TYPE VF-81, Saint-Gobain Performance Plastics, Wayne, N.J.) was attached to a polystyrene cover-plate, providing a TEFLON®-coated test-surface for mounting and treatment of hair. A strip of double-sided scotch tape was applied on the BYTAC® surface, closer to the top edge of the test plate. The glued side of the test-hair-sample was pressed down on the exposed side of the tape, making sure that the unglued hair strands are completely clear of the tape. The glued parts of the tress and exposed double-sided tape surface were covered with a strip of clear single-sided tape. Although the method is described for a single test-hair-tress, 4 tresses were used for each test condition and were placed side-by-side during the entire treatment.
The test tress was wetted by tap water and the excess water was absorbed with a paper towel. The calculated volume of the enzyme formulation was applied and was worked in gently and evenly into hair strands with gloved fingers for ˜30 seconds and let the formulation soak in for the specified deposition time. The tress was then rinsed with tap water agitated through a peristaltic pump for 20 seconds, to completely remove the surfactant.
Excess water was removed from the wetted tress from the previous step by absorption on a paper towel. The requisite volumes of the substrates (H2O2 and triacetin (TA)) were applied onto the test-tress. The mixture was rubbed into the hair strand firmly and evenly, with gloved finger for ˜1 min. The tress was left semi-covered for the specified treatment time.
Test-hair was washed with a diluted surfactant solution by rubbing the surfactant into hair with enough vigor to foam, for one minute to remove all traced of oils and residues arising during tress preparation or from previous cycles. Hair was rinsed thoroughly with tap water, agitated through a peristaltic pump for 35 seconds, while gently opening tresses with gloved fingers to ascertain that all adherents (surfactant or moisturizer) are dislodged. Excess moisture was absorbed by pressing down the paper towel over the tress. This would mark the end of one cycle. Treatment cycles were repeated starting from the enzyme-deposition step until the desired number of cycles was reached.
Two samples from each experiment were subjected to Tensile assay as described in Example 23, to determine the extent of hair-weakening.
The following experiments followed the general method of treatment disclosed in Example 25. Solutions were made in 5% TWEEN®-20 surfactant in 50 mM citrate buffer at pH 6. […] H2O2 and triacetin, formulations were made according to Example 24, in 20% LUBRIDERM® lotion in 50 mM citrate buffer at pH 6. After application of the reagents, the treatment was allowed to continue for 24 hr, as in daily application. TWEEN®-20 (5% in 50 mM citrate buffer at pH 6) was used for the final surfactant wash. The treatment was repeated for 15 additional cycles, 16 days in all.
The following experiments followed the general method of treatment disclosed in Example 26, except that after application of the reagents, the treatment was allowed to continue for shorter times per cycle rather than 24 hours per cycle.
Enzyme solutions were made in 0.5% or 5% TWEEN®-20 surfactant in 50 mM citrate buffer at pH 6. […] H2O2 and triacetin, formulations were made according to Example 24, in 20% LUBRIDERM® lotion (Johnson & Johnson, New Brunswick, N.J.) in 50 mM citrate buffer at pH 6. After application of 400 μL each of the reagents, the treatment was allowed to continue for 20-40 min. […]

[3] = two-step with buffer rinse, 1.0 mg/mL enzyme pH 6, 100 mM triacetin, 250 mM H2O2, up to 13 repeats
[4] = two-step without rinse, 0.5 mg/mL enzyme pH 8, urea 0 wt %
[5] = two-step without rinse, 0.5 mg/mL enzyme pH 8, urea 0 wt %, 100 mM triacetin, 250 mM H2O2
[6] = two-step without rinse, 0.5 mg/mL enzyme pH 8, urea 10 wt %, 100 mM triacetin, 250 mM H2O2
[7] = 1500 μg/mL (E/H 6), deposition 5 min, 0.5 M H2O2, 1 M TA, 2 hr/cycle

B1: C277S-HC263: C277S variant of Thermotoga maritima perhydrolase fused via a flexible linker to hair-binding domain HC263 (protein)
chain: MAFFDLPLEELKKYRPERYEEKDFDEFWEETLAESEKFPLDPVFERMESHLKTVEAYDVTFSGYRGQRIKGWLLVPKLEEEKLPCVVQYIGYNGGRGFPHDWLFWPSMGYICFVMDTRGQGSGWLKGDTPDYPEGPVDPQYPGFMTRGILDPRTYYYRRVFTDAVRAVEAAASFPQVDQERIVIAGGSQGGGIALAVSALSKKAKALLCDVPFLCHFRRAVQLVDTHPYAEITNFLKTHRDKEEIVFRTLSYFDGVNFAARAKIPALFSVGLMDNISPPSTVFAAYNYYAGPKEIRIYPYNNHEGGGSFQAVEQVKFLKKLFEKGGPGSGGAGSPGSAGGPGSPSAQSQLPDKHSGLHERAPQRYGPEPEPEPEPIPEPPKEAPVVIEKPKPKPKPKPKPPAHDHKNQKETHQRHAAGSGGGGSPHHHHHH
Tenacity @ max [1, 3]: 1.7 gf/den
Bleaching Start [1, 4]: 15th
Tenacity @ max [1, 5]: 1.2 gf/den
Tenacity @ max [1, 6]: 1.7 gf/den
TS ([2]; 750 μg/mL (E/H 3), 0.25 M H2O2, 0.25 M TA, 20 min/cycle, 16 cycles): 2.64 N/mgH
TS ([2]; 750 μg/mL (E/H 3), 0.25 M H2O2, 0.25 M TA, 24 hr/cycle, 16 cycles): 1.51 N/mgH
TS ([2]; 750 μg/mL (E/H 3), 0.5 M H2O2, 0.5 M TA, 20 min/cycle, 16 cycles): 2.09 N/mgH
TS ([2]; 750 μg/mL (E/H 3), 0.5 M H2O2, 0.5 M TA, 24 hr/cycle, 16 cycles): 0.25 N/mgH
TS ([2]; 750 μg/mL (E/H 3), 0.75 M H2O2, 1 M TA, 40 min/cycle): 2.49 N/mgH
Predicted TS for 24 h/cycle ([2]; 750 μg/mL, from 40 min/cycle): 1.00 ^ N/mgH
TS ([2]; 1500 μg/mL (E/H 5), 0.75 M H2O2, 1 M TA, 20 min/cycle): 2.47 N/mgH
TS [2, 7]: 1.62 N/mgH
Predicted TS for 24 h/cycle ([2]; 1500 μg/mL, from 20 min/cycle): 0.97 ^ N/mgH
TS ([2]; 1750 μg/mL (E/H 7), 0.25 M H2O2, 0.25 M TA, 20 min/cycle, 16 cycles): 2.33 N/mgH
TS ([2]; 1750 μg/mL (E/H 7), 0.25 M H2O2, 0.25 M TA, 24 hr/cycle, 16 cycles): 0.77 N/mgH
TS ([2]; 1750 μg/mL (E/H 7), 0.5 M H2O2, 0.5 M TA, 20 min/cycle, 16 cycles): 1.90 N/mgH
TS ([2]; 1750 μg/mL (E/H 7), 0.5 M H2O2, 0.5 M TA, 24 hr/cycle, 16 cycles): 0.14 N/mgH
TS ([2]; 1750 μg/mL (E/H 7), 0.75 M H2O2, 1 M TA, 40 min/cycle): 1.65 N/mgH
Predicted TS for 24 h/cycle ([2]; 1750 μg/mL, from 40 min/cycle, (d) predicted disintegration of hair): −0.13(d) N/mgH
TS ([2]; 2500 μg/mL (E/H 10), 0.75 M H2O2, 1 M TA, 20 min/cycle): 1.73 N/mgH
TS ([2]; 2500 μg/mL (E/H 10), 0.75 M H2O2, 1 M TA, 40 min/cycle): 1.67 N/mgH
TS ([2]; 2500 μg/mL (E/H 10), 20 min/cycle, 1 cycle): 3.44 N/mgH
TS ([2]; 2500 μg/mL, 4 cycles): 3.13 N/mgH
TS ([2]; 2500 μg/mL, 8 cycles): 2.34 N/mgH
TS ([2]; 2500 μg/mL, 12 cycles): 1.66 N/mgH
TS ([2]; 2500 μg/mL, 16 cycles): 0.95 N/mgH
Predicted TS for 24 h/cycle ([2]; 2500 μg/mL, from 20 min/cycle, (d) predicted disintegration of hair in 16 × 24 h/cycle): −0.02(d) N/mgH
Predicted TS for 24 h/cycle ([2]; 2500 μg/mL, from 40 min/cycle, (d) predicted disintegration of hair): −0.10(d) N/mgH

B2: C277S: non-targeted C277S variant of the Thermotoga maritima perhydrolase, un-targeted control (protein, listed as Thermotoga maritima)
chain: MAFFDLPLEELKKYRPERYEEKDFDEFWEETLAESEKFPLDPVFERMESHLKTVEAYDVTFSGYRGQRIKGWLLVPKLEEEKLPCVVQYIGYNGGRGFPHDWLFWPSMGYICFVMDTRGQGSGWLKGDTPDYPEGPVDPQYPGFMTRGILDPRTYYYRRVFTDAVRAVEAAASFPQVDQERIVIAGGSQGGGIALAVSALSKKAKALLCDVPFLCHFRRAVQLVDTHPYAEITNFLKTHRDKEEIVFRTLSYFDGVNFAARAKIPALFSVGLMDNISPPSTVFAAYNYYAGPKEIRIYPYNNHEGGGSFQAVEQVKFLKKLFEKG
Tenacity @ max [1, 3]: 1.7 gf/den
Bleaching Start [1, 4]: 13th
Tenacity @ max [1, 5]: 0.7 gf/den
Bleaching Start ([1]; two-step without rinse, 0.5 mg/mL enzyme pH 8, urea 10 wt %): 12th
Tenacity @ max [1, 6]: 0.6 gf/den
TS [2, 7]: 2.84 N/mgH

B3: SEQ ID NO: 323: S54V variant of the aryl esterase from Mycobacterium smegmatis fused to hair binding domain HC263 via a flexible linker (protein)
chain: MAKRILCFGDSLTWGWVPVEDGAPTERFAPDVRWTGVLAQQLGADFEVIEEGLVARTTNIDDPTDPRLNGASYLPSCLATHLPLDLVIIMLGTNDTKAYFRRTPLDIALGMSVLVTQVLTSAGGVGTTYPAPKVLVVSPPPLAPMPHPWFQLIFEGGEQKTTELARVYSALASFMKVPFFDAGSVISTDGVDGIHFTEANNRDLGVALAEQVRSLLGPGSGGAGSPGSAGGPGSPSAQSQLPDKHSGLHERAPQRYGPEPEPEPEPIPEPPKEAPVVIEKPKPKPKPKPKPPAHDHKNQKETHQRHAAGSGGGGSPHHHHHH
TS [2, 7]: 0.28 N/mgH
